Consider three molecules from PMC11127164, “Brefeldin A and M-COPA block the export of RTKs from the endoplasmic reticulum via simultaneous inactivation of ARF1, ARF4, and ARF5” (The Journal of Biological Chemistry, 2024).

To fix the notation:
T1: glutathione S-transferase-fused Golgi-localized γ-adaptin ear-containing, ARF-binding protein 3 (1–316) (UniProt Q9NZ52 1-316)
T1 construct: also called GST-GGA3; GST-GGA3(1–316); source: bought: Cytoskeleton, coated on Sepharose beads
T1 sequence (looked up): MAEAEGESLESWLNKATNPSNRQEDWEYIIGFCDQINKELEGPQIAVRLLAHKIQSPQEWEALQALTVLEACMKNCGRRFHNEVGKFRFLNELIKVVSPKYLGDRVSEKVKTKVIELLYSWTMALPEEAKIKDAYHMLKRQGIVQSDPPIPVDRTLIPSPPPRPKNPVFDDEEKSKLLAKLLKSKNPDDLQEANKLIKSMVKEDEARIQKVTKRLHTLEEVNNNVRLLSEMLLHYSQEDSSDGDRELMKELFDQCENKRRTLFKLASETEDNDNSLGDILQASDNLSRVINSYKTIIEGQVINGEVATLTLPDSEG

B1: ADP-ribosylation factor 5 (natural protein, human (endogenous in GIST-T1 and PC-9), UniProt P84085 1-180, looked up)
chain: MGLTVSALFSRIFGKKQMRILMVGLDAAGKTTILYKLKLGEIVTTIPTIGFNVETVEYKNICFTVWDVGGQDKIRPLWRHYFQNTQGLIFVVDSNDRERVQESADELQKMLQEDELRDAVLLVFANKQDMPNAMPVSELTDKLGLQHLRSRTWYVQATCATQGTGLYDGLDWLSHELSKR
notes: ADP-ribosylation factor 5 (ARF5), human, endogenous in GIST-T1 and PC-9 cells; also called ARF5; source: endogenous, GIST-T1 and PC-9 lysate
B2: ADP-ribosylation factor 4 (natural protein, human (endogenous in GIST-T1 and PC-9), UniProt P18085 1-180, looked up)
chain: MGLTISSLFSRLFGKKQMRILMVGLDAAGKTTILYKLKLGEIVTTIPTIGFNVETVEYKNICFTVWDVGGQDRIRPLWKHYFQNTQGLIFVVDSNDRERIQEVADELQKMLLVDELRDAVLLLFANKQDLPNAMAISEMTDKLGLQSLRNRTWYVQATCATQGTGLYEGLDWLSNELSKR
notes: ADP-ribosylation factor 4 (ARF4), human, endogenous in GIST-T1 and PC-9 cells; also called ARF4; source: endogenous, GIST-T1 and PC-9 lysate
B3: ADP-ribosylation factor 1 (natural protein)
chain: not shown
notes: ADP-ribosylation factor 1 (ARF1), human, endogenous in GIST-T1 and PC-9 cells; also called ARF1; source: endogenous, GIST-T1 and PC-9 lysate

T2 sequence (Q92538 whole entry): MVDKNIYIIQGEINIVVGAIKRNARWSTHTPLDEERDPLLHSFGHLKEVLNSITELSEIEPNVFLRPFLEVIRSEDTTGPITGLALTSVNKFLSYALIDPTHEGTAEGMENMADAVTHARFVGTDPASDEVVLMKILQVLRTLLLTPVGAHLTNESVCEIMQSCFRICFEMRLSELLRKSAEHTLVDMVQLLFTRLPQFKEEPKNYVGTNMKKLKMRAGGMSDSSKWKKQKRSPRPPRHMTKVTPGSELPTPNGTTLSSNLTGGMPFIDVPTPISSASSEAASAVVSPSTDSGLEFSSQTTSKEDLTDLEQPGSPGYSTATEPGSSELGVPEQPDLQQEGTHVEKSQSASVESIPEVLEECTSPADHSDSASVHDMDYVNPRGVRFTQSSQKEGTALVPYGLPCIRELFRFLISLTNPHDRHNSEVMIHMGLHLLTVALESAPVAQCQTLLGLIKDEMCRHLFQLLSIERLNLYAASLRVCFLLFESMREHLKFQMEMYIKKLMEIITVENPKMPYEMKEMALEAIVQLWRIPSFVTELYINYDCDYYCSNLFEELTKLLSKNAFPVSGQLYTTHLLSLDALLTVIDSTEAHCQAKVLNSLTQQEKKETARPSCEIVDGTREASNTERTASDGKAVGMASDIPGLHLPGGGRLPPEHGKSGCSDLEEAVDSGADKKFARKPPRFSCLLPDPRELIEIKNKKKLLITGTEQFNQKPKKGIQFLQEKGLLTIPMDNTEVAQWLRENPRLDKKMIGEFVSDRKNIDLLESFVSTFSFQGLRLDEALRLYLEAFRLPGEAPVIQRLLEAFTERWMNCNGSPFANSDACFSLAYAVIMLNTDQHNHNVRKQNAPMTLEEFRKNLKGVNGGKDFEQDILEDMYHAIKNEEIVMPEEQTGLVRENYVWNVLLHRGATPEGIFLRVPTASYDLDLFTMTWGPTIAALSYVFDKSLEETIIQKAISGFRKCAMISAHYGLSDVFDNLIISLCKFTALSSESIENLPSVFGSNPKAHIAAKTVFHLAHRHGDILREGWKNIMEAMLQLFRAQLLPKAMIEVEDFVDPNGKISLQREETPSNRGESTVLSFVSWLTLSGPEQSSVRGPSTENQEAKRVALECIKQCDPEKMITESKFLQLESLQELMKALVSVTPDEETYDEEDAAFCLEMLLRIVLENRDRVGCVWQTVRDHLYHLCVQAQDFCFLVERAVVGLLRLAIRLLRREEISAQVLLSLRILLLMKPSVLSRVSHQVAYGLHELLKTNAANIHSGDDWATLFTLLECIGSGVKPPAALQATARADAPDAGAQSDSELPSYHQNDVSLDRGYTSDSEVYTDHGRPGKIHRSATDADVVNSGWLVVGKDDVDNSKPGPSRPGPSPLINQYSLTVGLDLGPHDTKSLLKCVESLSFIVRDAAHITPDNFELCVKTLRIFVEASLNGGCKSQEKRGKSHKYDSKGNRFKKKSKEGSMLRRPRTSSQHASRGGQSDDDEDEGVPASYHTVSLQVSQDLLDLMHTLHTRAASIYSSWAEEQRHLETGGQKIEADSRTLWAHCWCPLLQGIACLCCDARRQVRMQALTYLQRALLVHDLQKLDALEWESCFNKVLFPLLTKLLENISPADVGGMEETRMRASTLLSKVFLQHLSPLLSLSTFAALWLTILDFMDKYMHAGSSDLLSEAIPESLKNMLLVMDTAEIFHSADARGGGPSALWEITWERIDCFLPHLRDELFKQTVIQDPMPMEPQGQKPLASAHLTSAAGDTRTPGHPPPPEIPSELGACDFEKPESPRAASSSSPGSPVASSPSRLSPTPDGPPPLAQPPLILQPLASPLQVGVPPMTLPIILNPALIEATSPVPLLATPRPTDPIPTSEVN

The first assay concerns the target T1, glutathione S-transferase-fused …. The assay can be described thus: pull-down; GST-GGA3(1–316)-coated Sepharose beads incubated with lysates of GIST-T1 or PC-9 cells at 4 °C for 1 h, washed once, immunoblot for ARFs; cells untreated or treated with 1 μM M-COPA or 1 μM BFA for 4 h (GIST-T1) or 200 nM M-COPA for 8 h (PC-9). Conditions: one partner purified.
B1: the “level of GGA3-bound ARF after M-COPA treatment of the cells, relative to the untreated control” value was below 18%.
The same measure, in the same setting: under B2 stands below 18%.
Consider B3, for which the “level of GGA3-bound ARF after M-COPA treatment of the cells, relative to the untreated control” value is below 18%.

Another assay has as its target T2, Golgi-specific BFA-resistance guanine nucleotide exchange factor 1 (human (endogenous in GIST-T1), UniProt Q92538 1-1860).
T2 construct: Golgi-specific BFA-resistance guanine nucleotide exchange factor 1 (GBF1), human, endogenous in GIST-T1 cells; Immunoprecipitated with an anti-GBF1 antibody on Dynabeads Protein G; also called GBF1; source: endogenous, GIST-T1 lysate
Kind of assay: co-IP; endogenous GBF1 immunoprecipitated from GIST-T1 lysate (NP-40 lysis buffer, 50 mM HEPES pH 7.4) with anti-GBF1 on Dynabeads Protein G, 4 °C, 5 h, immunoblot for ARFs; cells untreated or treated with 1 μM M-COPA for 4 h; co-precipitated ARF normalised to GBF1. The conditions noted are these: partners not purified.
As to B1, the “fold increase of ARF co-immunoprecipitated with GBF1 after M-COPA treatment, relative to the untreated control” value was determined as 8.66 fold.
On the same count and under the same terms, the same measure for B2: 14.1 fold.
Regarding B3, the “fold increase of ARF co-immunoprecipitated with GBF1 after M-COPA treatment, relative to the untreated control” value came out at 6.89 fold.
